Biological target: trypsin-digested STING c-di-GMP binding domain (CBD) (human) (UniProt Q86WV6)
Assay: SEC

Work on “trypsin-digested STING c-di-GMP binding domain (CBD) (from UniProt Q86WV6 139-379) (domain or fragment)” yielded a stoichiometry N of 2.

Source: publication PMC3697849
